Patent US20090291083A1, “BARB4 TARGET, ANTIBODY DESIGNATED BARB4, BARB4 RELATED ANTIBODIES, AND METHODS OF MAKING AND USING SAME” (PATRYS LIMITED, priority 2008, published 2009)

What was measured:
[1] = system: A549; test: FACS analysis of cell surface binding, BARB4 and commercial TAF 15 antibody; set-up: species or system human; conditions: BARB4 100 ug/ml, TAF 15 antibody 25 μg/ml
Procedure: (§1) To further validate BARB4 target protein TAF 15, BARB4 and a commercial TAF 15 antibody (anti-human TAFII p68, Santa Cruz Biotechnology, sc-81121) were analyzed for binding to BxPC-3, HEK 293, A549 and HeLa cell lines. In brief, cells were trypsinized with cell dissociation solution (Sigma C5789), resuspended in complete medium (RPMI 1640, PAA, E15-039, 10% Fetal bovine serum, PAA, A15-151 and 1% Glutamine, PAA, M11-004) and set on 2×10^5/ml. After 30 minutes on ice, cells were dispersed at 1 ml per FACS-tube and washed once with ice-cold PBS by centrifugation with 500 g and 4° C. Staining was done with BARB4 (100 ug/ml) or the commercial TAF 15 (25 μg/ml) IgG antibodies, control IgGs (IgG lambda, or mouse IgG), or without antibody in 200 μl PBS. Cells were incubated with 25 μg/ml antibody in 100 μl for 30 minutes on ice, then washed with ice cold PBS and secondary antibody (anti mouse IgG-FITC, dianova 115-095-008) was applied at a dilution of 1:50 in 200 μl per tube. After another 30 minutes of incubation in the dark, cells were washed twice with PBS and analyzed by FACS. […] BARB4 target protein TAF 15 validation was then analyzed by immunoprecipitation of MKNcell extracts with BARB4 and subsequent Western blotting with either BARB4 or anti-TAF 15 antibodies (Biomol, A300-308A; or Aviva, ARP30111_T100).

[2] = system: BxPC-3; test: as above; set-up: species or system human; conditions: BARB4 100 ug/ml, TAF 15 antibody 25 μg/ml
Procedure: as §1

[3] = system: lung carcinoma cells (A549); test: FACS analysis of tumor cell binding; set-up: species or system human; conditions: 20 min on ice
Procedure: (§2) To analyze tumor cell binding, pancreas cancer cells (BXPC-3), stomach cancer cells (23132/87), lung carcinoma cells (A549) and malignant melanoma cells (HTB-69 and CRL-1424) were grown to subconfluency in complete medium, detached with Trypsin/EDTA and incubated on ice for 1 h for recreation. Tumor cells were subsequently incubated on ice with BARB4 antibody (diluted in PBS containing 0.01% sodium azide), or human isotype-matched control antibody (Chrompure human IgG, Dianova, Hamburg, Germany) for 20 min on ice. Following incubation, cells were incubated with a FITC-labeled rabbit anti-human IgG antibody (1:50, Dako, Germany) for 20 min on ice, and cells were analyzed by flow cytometry (FACScan; Becton Dickinson, USA).

[4] = system: pancreas cancer cells (BXPC-3); test: FACS analysis of tumor cell binding; set-up: species or system human; conditions: 20 min on ice
Procedure: as §2

[5] = system: Malignant Tissues: Colon; test: Immunohistochemistry (IHC) with biotinylated BARB4 on malignant tissue; format: binding, human; conditions: positive/negative
Procedure: (§3) Immunohistochemistry with human IgG on human tissue naturally results in high background staining. Accordingly, BARB4 was labeled with biotin to reduce background.
(§4) BARB4 antibody and an unrelated commercial IgG control (Chrompure IgG, Dianova) where labelled with “EZ-Link Maleimide-PEO Solid Phase Biotinylation Kit” from Pierce (Cat-# 21930) and Immunohistochemistry was initiated on different tumor tissue. Parrafin embedded tissue was first deparaffinized by treatment with Xylene 1 for 5 min, Xylene 2 for 5 min, followed by 100% Ethanol 1 for 5 min, 100% Ethanol 2 for 5 min, 70 ml Methanol+500 μl H2O2 for 7 min, 90% Ethanol 1 for 3 min, 90% Ethanol 2 for 3 min, 80% Ethanol 1 for 3 min, 80% Ethanol 2 for 3 min, 70% Ethanol 1 for 3 min, 70% Ethanol 2 for 3 min, and then washed three times with distilled H2O. (1 and 2 mean that the tissues were treated 2 times with the same alcohol, one after the another, in two different tanks.) Tissue was then heated in Citric acid, pH 5,5 in a water-bath at 99.9° C. for 20 min, placed in Tris/NaCl (Tris, 0.6 g/l and NaCl 8.1 g/l, pH 7.4) for 5 min, block with 0.5% BSA in PBS for 60 min, and then washed three times with Tris/NaCl (Tris, 0.6 g/l and NaCl 8.1 g/l, pH 7.4). Primary antibody (150 μl per microscope slide) was added, or a negative control biotinylated isotype matched control human antibody (Chrompure IgG, Dianova, Germany) or a positive controlanti-cytokeratin antibody, and incubated for 30 min in a humidified chamber at 37° C. Tissue was washed three times with Tris/NaCl (Tris, 0.6 g/l and NaCl 8.1 g/l, pH 7.4). Secondary antibody: (150 […]) was subsequently added and incubated for 30 min in a humidified chamber at room temperature (for biotinylated antibodies: NeurtrAvidin 1:100 in PBS), washed three times with Tris/NaCl (Tris, 0.6 g/l and NaCl 8.1 g/l, pH7.4), placed in PBS for 10 min. Tiusse was subsequently incubated with diaminobenzidine (0.05%)-hydrogen peroxide (0.02%) (150 μl per microscope slide) (Sigma, Taufkirchen, München, Germany) for 10 min, washed three times with H2O, washed once with distilled H2O, incubated with hematoxylin/eosin for 5 min, and placed under running tap water 10-15 min. Tissue was then washed again with distilled H2O, and the slides covered with Aquatex (Merck Bioscience).

[6] = system: Malignant Tissues: Stomach; test: as above; format: binding, human; conditions: positive/negative
Procedure: as §3, §4

[7] = system: Malignant Tissues: Melanoma; test: as above; format: binding, human; conditions: Metastases of malignant melanoma, positive/negative
Procedure: as §3, §4

[8] = system: Malignant Tissues: Breast; test: as above; format: binding, human; conditions: positive/negative
Procedure: as §3, §4

[9] = system: human pancreas carcinoma cells (BXPC-3); test: Glycosidase assay on cytospins, immunohistochemical staining; format: binding; conditions: BXPC-3 cytospins, biotinylated BARB4 100 μg/ml
Procedure: To determine whether O- or N-linked sugar residues are potentially involved in BARB4 binding to tumor cells, cytospin preparations of BXPC-3 cancer cells were incubated with N- or O-glycosidase. In brief, 4×10^5 human pancreas carcinoma cells (BXPC-3) were resuspended in 1 ml Dulbecco's phosphate buffered saline pH 7.2 (Sigma, Taufkirchen, Germany) and incubated with 10 U/ml N-glycosidase or 40 mU/ml O-glycosidase (both Roche Applied Science, Mannheim, Germany) for 2 hours at 37° C. Untreated cells in Dulbecco's phosphate buffered saline served as control. Cytospins were prepared and immunohistochemical staining with biotinylated BARB4 antibody (100 μg/ml) was performed.
After treatment of the cells, binding of BARB4 was evaluated by immunohistochemical staining (FIG. 5). […] BARB4 could therefore bind to an eptiope that includes or consists of a carbohydrate moiety that is removed or modified by O-glycosidase treatment.

B1: BARB4: human IgG antibody produced by hybridoma DSMZ Deposit No. DSM ACC2876; heavy chain SEQ ID NOs:1, 3, 5, 7, light chain SEQ ID NO:9 (antibody, V domains shown)
VH: QVQLVESGGGVVQPGRSLRLSCAASGFRFTTHGMHWVRQAPGKGLEWVAVISYNGRNKYYADYVNGRFTISRDDSRDTVFLQMNSLRPEDTAMYYCAKVRGDGYGDYGYFDYWGHGTLVSVSS
VL: QSALTQPRSVSGSPGQSVTISCTGTYNYVSWYQQHPGKAPKLMIFDVSRRSSGVPDRFSGSKSGNTASLTISGLQAEDEADYYCCSYGGTYLYVFGTGTTVTVLGQ
FACS binding to the cell surface [1]: binding | FACS binding to the cell surface [2]: binding | tumor cell binding (FACS) [3]: binds | tumor cell binding (FACS) [4]: binds | Barb 4 +/− ([5]; Adeno): 1/0 | Barb 4 +/− ([5]; Liver Metastasis): 2/0 | Barb 4 +/− ([6]; Adeno (Cardio, intestinal)): 1/0 | Barb 4 +/− ([6]; Adeno (intestinal)): 2/0 | Barb 4 +/− [7]: 5/0 | Barb 4 +/− ([8]; Invasive ductal): 2/0 | Barb 4 +/− ([8]; Lung Metastasis): 1/0 | Barb 4 +/− ([8]; Lymph Node Metastasis): 1/0 | surface binding on cells treated with N-glycosidase ([9]; 10 U/ml N-glycosidase 2 hours 37° C.): clear reduction of surface binding | binding on cells treated with O-glycosidase ([9]; 40 mU/ml O-glycosidase 2 hours 37° C.): no effect
